Experiment [1] has as its system BJ cells. The experiment can be described thus: Reprogramming of human fibroblasts scored by TRA-1-60+ colonies/clusters. The class given is cell-based. The procedure:
Briefly (FIG. 1A), 2×10^4 of BJ cells were seeded in each well of a 24-well plates. The second day, fibroblasts were transduced with OCT4 (10 MOI), SOX2 (5 MOI), KLF4 (5 MOI) along with 250 μl of individual kinase viral supernatant freshly packaged in one well of a 6-well plate. Twenty-two cDNAs were evaluated in one 24-well plate. One well is OSK control, and one well of cells is transduced with OSK plus 250 μl of GFP viral supernatant as a second control. Virus was removed next day with fresh fibroblast medium. Forty-eight hours after transduction, fibroblasts were transferred from one well into a 60-mm dish for continued reprogramming. The next day of re-seeding, fibroblast medium was replaced with E7 medium (E8 minus TGF beta) plus 100 μM of sodium butyrate. From day 18 of reprogramming on, E8 media was used. On day 25 of reprogramming, reprogramming dishes were stained for ALP or TRA-1-60 markers.
• Concentration of virus: The reprogramming viruses (OCT4, SOX2, KLF4, MYC and BET members) were concentrated before use except for library viruses. The lentiviral supernatant was centrifuged at 3,000×g for 10 mins at 4° C. to remove the cell debris. Thirty ml of the viral supernatant was then transferred into each 50-ml tube. 7 ml of 50% PEG-6000 stock solution (final concentration of 8.5%) and 4.1 ml of 4 M NaCl stock solution was added to each tube (final concentration of 0.4 M). The virus mixture was stored at 4° C. for 3-5 h.
• Cell culture and reprogramming: Human fibroblast cells (BJ ATCC CRL-2522®) were cultured in fibroblast medium: DMEM, 10% heat-inactivated FBS, 0.1 mM 2-mercaptoethanol, 100 U/ml penicillin, 100 μg/ml streptomycin, 0.1 mM MEM NEAA and 4 ng/ml human bFGF. For reprogramming, seed BJ cells into 24-well plate at 2×10^4 cells/well. Twenty-four hours after plating, pre-mix the OSK (OCT4, 10 MOI; SOX2, 5 MOI and KLF4, 5 MOI) viruses (shown in FIGS. 6B-6D, SEQ ID NO: 58-60, respectively), and add the OSK virus along with 250 μl supernatant of individual kinase virus into respective wells. Incubate overnight. Next morning, remove viruses by replacing virus-containing medium with fresh fibroblast medium. Twenty-four hours after transduction, the cells were re-seeded from one well into one matrigel-coated 60-mm dish. Next day, replace fibroblast medium with reprogramming media (E7 plus sodium butyrate at 100 μM). On 18 day, start to use E8 media. On day 25 of reprogramming, stain the reprogramming cells for alkaline phosphatase or TRA-1-60.

The test system of experiment [2] is BJ cells. The experiment can be described thus: Quantification of ESC-like (high-quality PSC morphology) colonies in reprogramming. The note with it: BRD3R reprogramming vs control reprogramming. In kind it is cell-based, human. The source says: When combined with the 3F combination (OCT4, SOX2 and KLF4), BRD3R gave rise to abundant TRA-1-60^+ clusters as early as day 6, whereas such clusters were infrequent events before day 10 in the control reprogramming (3F alone and 3F-GFP) (FIGS. 8A and 8E). On day 10, TRA-1-60^+ cells in BRD3R dishes developed into colonies while controls contained only small clusters of TRA-1-60^+ cells (FIG. 8E). The number of high-quality PSC colonies was also compared (well-defined colony border, homogeneous iPSCs within each reprogramming colony, smooth colony surface, and typical morphology of pluripotent cells (small cells, large nucleus, and close cell contact)), BRD3R reprogramming gave rise to at least 57× more colonies with PSC morphology than controls (FIGS. 9A and 9B). In addition, the iPSC colonies generally were larger in BRD3R dishes than in the control dishes (FIG. 1E, and FIGS. 8C, 8E, 9B, and 12C).
• Cell culture and reprogramming: Human fibroblast cells (BJ ATCC CRL-2522®) were cultured in fibroblast medium: DMEM, 10% heat-inactivated FBS, 0.1 mM 2-mercaptoethanol, 100 U/ml penicillin, 100 μg/ml streptomycin, 0.1 mM MEM NEAA and 4 ng/ml human bFGF. For reprogramming, seed BJ cells into 24-well plate at 2×10^4 cells/well. […]

Another experiment relates to reprogramming cells. In words: Mitotic shake-off of reprogramming cells. The class given is cell-based, human. The note with it: day-4 reprogramming cells. The protocol: • Mitotic shake-off: Reprogramming cells were prepared in T75 flasks. On day 4 of reprogramming, 1 h before mitotic shake-off, replace spent media with fresh reprogramming media. Shake the flasks at 200 rpm for 1 min and collect the media containing the shake-off mitotic cells. Add new warmed media and incubate for 10 min. Repeat these shake-off collection 2 more times. Pool the cells and centrifuge at 1,000×g for 5 min. Count the cells collected.

Another experiment addresses T1, H3K14Ac (Homo sapiens, UniProt P68431).
T1 construct: Histone tails used for peptide pull-down experiments; expressed in transfected cells; host or cells: human BJ fibroblasts transduced with BRD3R lentivirus (lysate)
The experiment can be described thus: Histone peptide pull-down assay. The note with it: lysates of human fibroblasts overexpressing the protein. The class given is binding. The procedure: (§1) • Histone peptide pull-down assay: H3 or H4 histone tails with 8 different acetylation modifications were evaluated for binding with BRD3R and BRD3. One unmodified tail for each histone was used for negative control.
(§2) Human BJ fibroblasts were transduced with BRD3 or BRD3R viruses. Three days post-transduction, cells were lysed by non-denaturing lysis buffer (20 mM HEPES pH 7.9, 150 mM NaCl, 1 mM MgCl2, 0.5% NP40, 10 mM NaF, 0.2 mM NaVO4, 10 mM β-glycerol phosphate, 5% glycerol, 1 mM DTT, 1 mM PMSF and protease inhibitors). Twenty μg of the cell lysates were incubated with 1 μg biotinylated peptide in 300 μl binding buffer (50 mM Tris pH 7.5, 150 mM NaCl, 0.1% NP-40, 1 mM PMSF and protease inhibitors) at 4° C. for overnight. The next day, 30 μl of Dynabeads M-280 Streptavidin was added into each sample (Invitrogen, 11205D). The mixture of proteins, antibodies and beads were further incubated with gentle rotation at 4° C. for 1 h. The beads were then washed with binding buffer three times. The bound proteins were resuspended in 60 μl of 2× SDS sample buffer. The pull-down proteins were analyzed by western using antibody of BRD3 (Proteintech, 11859-1-AP). Two micrograms of cell lysates were loaded as input control. For semi-quantification, band density was normalized to the corresponding inputs.

Another experiment has as its target T2, H3K9Ac (Homo sapiens, UniProt P68431).
T2 construct: Histone tails used for peptide pull-down experiments; expressed in transfected cells; host or cells: human BJ fibroblasts transduced with BRD3R lentivirus (lysate)
The experiment can be described thus: Histone peptide pull-down assay. In kind it is binding. The note with it: lysates of human fibroblasts overexpressing the protein. The procedure:
as §1, §2

The target of the next experiment is T3, H4K5Ac (Homo sapiens, UniProt P62805).
T3 construct: Histone tails used for peptide pull-down experiments; Peg-biotin (chemical label); expressed in transfected cells; host or cells: human BJ fibroblasts transduced with BRD3R lentivirus (lysate)
In words: Histone peptide pull-down assay. In kind it is binding. The note with it: lysates of human fibroblasts overexpressing the protein. The protocol:
as §1, §2

Experiment [3] has as its target T4, biacetylated H3 (H3K9/14Ac) (Homo sapiens, UniProt P68431).
T4 construct: Histone tails used for peptide pull-down experiments; expressed in transfected cells; host or cells: human BJ fibroblasts transduced with BRD3R lentivirus (lysate)
The experiment can be described thus: Histone peptide pull-down assay. The class given is binding. The note with it: lysates of human fibroblasts overexpressing the protein. The protocol:
as §1, §2

Experiment [4] deals with T5, tetra-acetylated H4 (H4K5/8/12/16Ac) (Homo sapiens, UniProt P62805).
T5 construct: Histone tails used for peptide pull-down experiments; Peg-biotin (chemical label); incubated with lysate of human BJ fibroblasts transduced with BRD3R or BRD3 virus
The experiment can be described thus: Histone peptide pull-down assay. The note with it: lysates of human fibroblasts overexpressing BRD3R or BRD3; western with BRD3 antibody. In kind it is binding. The procedure: as §1, §2

The values below come from patent US20180163180A1, “METHOD OF ENHANCING SOMATIC CELL REPROGRAMMING WITH THE ACETYLLYSINE READER BRD3R” (THE UAB RESEARCH FOUNDATION, INC ., priority 2015, published 2018).

Consider “BRD3R: BRD3 with Reprogramming activity; 556 aa isoform of human BRD3 (AAH32124, SEQ ID NO: 47), encoded by cDNA L61”, for which, in the experiment on BJ cells [1] (combined with 3F (OCT4, SOX2, KLF4), controls infrequent before day 10), the “appearance of abundant TRA-1-60+ clusters” value was 6 days. Also, the “reprogramming activity (TRA-1-60+ colonies)” value in the experiment with BJ cells [1] (used with 3F in BJ cells, compared to OSK-GFP control) is recorded as “more TRA-1-60^+ colonies”. The “more colonies with PSC morphology than controls” value in the experiment with BJ cells [2] is “at least 57 ×”. Further, the “mitotic cells collected compared to controls” value with reprogramming cells is 2.43 ×. The “binding to H3K14Ac peptide” value in the experiment with H3K14Ac is “bound”. Also, the “binding to H3K9Ac peptide” value with H3K9Ac is recorded as “bound”. In addition, the “binding to H4K5Ac peptide” value in the experiment with H4K5Ac is given as “weakly”. In addition, the “binding to H3K9/14Ac peptide” value in experiment [3] is on record as “bound very weakly”. Besides, the “binding to H4K5/8/12/16Ac peptide” value in experiment [4] is “bound strongly”.
